Changes are numbered by the printed parent chain.
T1: human MASP-3 (construct not stated) (human)
T1 construct: also called MASP-3 antigen
T1 chain: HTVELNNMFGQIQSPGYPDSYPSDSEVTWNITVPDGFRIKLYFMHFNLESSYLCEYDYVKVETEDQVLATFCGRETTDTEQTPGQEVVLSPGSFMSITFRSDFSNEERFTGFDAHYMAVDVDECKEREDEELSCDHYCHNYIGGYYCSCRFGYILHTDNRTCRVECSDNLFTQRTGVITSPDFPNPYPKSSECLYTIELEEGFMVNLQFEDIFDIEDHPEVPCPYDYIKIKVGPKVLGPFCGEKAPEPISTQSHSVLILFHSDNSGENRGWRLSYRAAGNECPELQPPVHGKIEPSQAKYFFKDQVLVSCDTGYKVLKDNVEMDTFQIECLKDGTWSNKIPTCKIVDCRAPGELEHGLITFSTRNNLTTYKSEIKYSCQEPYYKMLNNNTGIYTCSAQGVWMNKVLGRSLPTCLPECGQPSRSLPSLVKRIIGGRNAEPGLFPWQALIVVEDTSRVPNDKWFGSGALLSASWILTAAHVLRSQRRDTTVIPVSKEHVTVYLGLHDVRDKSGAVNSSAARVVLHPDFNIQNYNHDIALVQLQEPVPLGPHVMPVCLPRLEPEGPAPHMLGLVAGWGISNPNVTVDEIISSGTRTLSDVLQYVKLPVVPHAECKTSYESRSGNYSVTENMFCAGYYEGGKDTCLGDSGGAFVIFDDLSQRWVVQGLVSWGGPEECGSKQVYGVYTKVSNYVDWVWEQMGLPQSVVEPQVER

T2: human MASP-3 CCP1-CCP2-SP fragment (human)
T2 construct: limits of the assay construct are not restated; also called rMASP-3 (CCP1-CCP2-SP)
T2 chain: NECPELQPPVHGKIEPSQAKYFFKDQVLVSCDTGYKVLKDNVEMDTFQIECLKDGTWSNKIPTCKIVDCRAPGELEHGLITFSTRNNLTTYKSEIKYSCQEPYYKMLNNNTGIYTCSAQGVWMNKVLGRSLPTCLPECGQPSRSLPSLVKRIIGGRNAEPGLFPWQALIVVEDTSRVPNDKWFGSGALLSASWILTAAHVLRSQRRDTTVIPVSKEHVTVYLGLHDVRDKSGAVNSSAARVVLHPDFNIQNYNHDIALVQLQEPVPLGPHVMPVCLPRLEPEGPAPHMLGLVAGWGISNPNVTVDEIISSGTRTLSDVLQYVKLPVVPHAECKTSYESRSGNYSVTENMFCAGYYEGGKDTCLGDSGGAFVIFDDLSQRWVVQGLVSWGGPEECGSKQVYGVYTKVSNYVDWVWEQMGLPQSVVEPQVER

T3: recombinant full-length mouse MASP-3 (mouse)
T3 construct: Entry is with leader; also called mouse full length MASP-3
T3 chain: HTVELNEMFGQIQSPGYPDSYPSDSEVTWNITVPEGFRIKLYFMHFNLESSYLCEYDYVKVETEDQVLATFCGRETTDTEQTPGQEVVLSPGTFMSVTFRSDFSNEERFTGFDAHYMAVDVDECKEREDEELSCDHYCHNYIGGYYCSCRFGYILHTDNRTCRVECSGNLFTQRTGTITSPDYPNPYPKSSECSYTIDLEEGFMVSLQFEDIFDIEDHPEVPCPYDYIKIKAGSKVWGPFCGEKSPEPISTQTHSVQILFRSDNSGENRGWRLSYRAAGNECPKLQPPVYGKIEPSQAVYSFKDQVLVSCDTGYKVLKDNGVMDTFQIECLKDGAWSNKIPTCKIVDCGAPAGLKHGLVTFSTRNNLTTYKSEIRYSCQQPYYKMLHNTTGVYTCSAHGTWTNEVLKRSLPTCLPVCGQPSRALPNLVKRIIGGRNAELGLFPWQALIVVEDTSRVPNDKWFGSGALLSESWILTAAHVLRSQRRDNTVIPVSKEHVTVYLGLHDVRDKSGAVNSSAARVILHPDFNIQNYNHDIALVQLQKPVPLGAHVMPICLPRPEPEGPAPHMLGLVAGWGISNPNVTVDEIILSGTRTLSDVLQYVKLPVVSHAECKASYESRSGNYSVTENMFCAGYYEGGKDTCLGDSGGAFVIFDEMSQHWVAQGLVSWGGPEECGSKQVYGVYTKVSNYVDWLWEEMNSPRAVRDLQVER

T4: recombinant human MASP-1A (S646A, CCP1-CCP2-SP fragment) (human, UniProt P48740 298-699, limits assumed)
T4 chain: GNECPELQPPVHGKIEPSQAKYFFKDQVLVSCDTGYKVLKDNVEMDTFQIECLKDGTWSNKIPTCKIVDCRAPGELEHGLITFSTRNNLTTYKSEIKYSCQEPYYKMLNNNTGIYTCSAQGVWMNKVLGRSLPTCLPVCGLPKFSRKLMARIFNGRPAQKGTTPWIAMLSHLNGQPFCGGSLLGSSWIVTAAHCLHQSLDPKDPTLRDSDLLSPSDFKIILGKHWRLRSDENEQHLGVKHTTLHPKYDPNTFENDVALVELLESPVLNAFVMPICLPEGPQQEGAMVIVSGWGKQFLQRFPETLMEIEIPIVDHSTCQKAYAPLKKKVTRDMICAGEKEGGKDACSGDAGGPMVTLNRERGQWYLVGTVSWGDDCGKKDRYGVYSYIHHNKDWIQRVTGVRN

B1: MASP-3 mAb 1E7 (mouse-human chimeric IgG4) (antibody, V domains shown)
VH: QVQLKQSGPELARPWASVKISCQAFYTFSRRVHFAIRDTNYWMQWVKQRPGQGLEWIGAIYPGNGDTSYNQKFKGKATLTADKSSSTAYMQLSSLTSEDSAVYYCASGSHYFDYWGQGTTLTVSS
VL: DIQLTQSPAILSVSPGERVSFSCRASQSIGTSIHWYQQRTNGSPRLLIKYASESISGIPSRFSGSGSGTDFTLSINSVESEDIADYYCQQSNSWPYTFGGGTKLEIKR
B2: h10D12-45-21-DA Fab (VH-45 and VL-21-DA) (Fab, V domains shown)
VH: QIQLVQSGSELKKPGASVKVSCKASGYIFTSYGMSWVRQAPGKGLKWMGWINTYSGVPTYADDFKGRFVFSLDTSVRTPYLQISSLKAEDTAVYFCARGGEAMDYWGQGTLVTVSS
VL: DVLMTQTPLSLSVTPGQPASISCKSSQSLLDSAGKTYLNWLLQRPGQSPKRLIYLVSKLDSGVPDRFSGSGSGTDFTLKISRVEAEDVGVYYCWQGTHFPWTFGQGTKVEIKR
notes: also called 10D12-DA mutant
B3: h10D12-45-21-GA Fab (VH-45 and VL-21-GA) (Fab, V domains shown)
VH: B2 VH
VL: B2 VL with A33D, G34A
notes: Humanized monovalent Fab; also called 10D12-GA mutant
B4: h10D12-45-21-DE Fab (VH-45 and VL-21-DE) (Fab, V domains shown)
VH: B2 VH
VL: B2 VL with A33E
notes: also called 10D12-DE mutant
B5: h4D5-19-1-NA Fab (VH-19 and VL-1-NA) (Fab, V domains shown)
VH: QVQLVQSGAEVKKPGASVKVSCKASGYTFTTDDINWVRQAPGQGLEWIGWIYPRDDRTKYNDKFKDRATLTVDTSSNTAYMELSSLRSEDTAVYYCSSLEDTYWGQGTLVTVSS
VL: DIVMTQSPDSLAVSLGERATINCKSSQSLLASRTRKNYLAWYQQKPGQPPKLLIYWASTRESGVPDRFSGSGSGTDFTLTISSLQAEDVAVYYCKQSYNLYTFGQGTKVEIKR
notes: Humanized monovalent Fab; also called 4D5-NA mutant
B6: h4D5-19-1-NQ Fab (VH-19 and VL-1-NQ) (Fab, V domains shown)
VH: B5 VH
VL: B5 VL with A31Q
notes: also called 4D5-NQ mutant
B7: h4D5-19-1-ST Fab (VH-19 and VL-1-ST) (Fab, V domains shown)
VH: B5 VH
VL: B5 VL with A31N, S32T
notes: also called 4D5-ST mutant
B8: h13B1_10-1-NA Fab (VH-10 and VL-1-NA) (Fab, V domains shown)
VH: QVQLVQSGAEVKKPGASVKVSCKASGYTFTGKWIEWVRQAPGQGLEWIGEILPGTGSTNYNEKFKGRATFTADSSTSTAYMELSSLRSEDTAVYYCLRSEDVWGQGTLVTVSS
VL: B5 VL with L100I, Y101P
notes: Humanized monovalent Fab; also called 13B1-NA
B9: MASP-3 mAb 11B6 (mouse-human chimeric IgG4) (antibody, V domains shown)
VH: QVQLKQSGAELVKPGASVKMSCKASGYTFTTYPIEWMKQNHGKSLEWIGNFHPYNGDSKYNEKFKGKATLTVEKSSSTVYLELSRLPSADSAIYYCARRHYAASPWFAHWGQGTLVTVSS
VL: DIVMTQSQKFMSTSVGDRVNVTCKASQNVGPTVAWYQQKPGQSPKALIYSASYRYSGVPDRFTGSGSGTDFTLTISNVHSEDLAEYFCQQYNSYPFTFGSGTKLEIKR
B10: MASP-3 mAb 15D9 (mouse-human chimeric IgG4) (antibody, V domains shown)
VH: QVQLKQSGTELMKPGASVNLSCKASGYTFTAYWIEWVKQRPGHGLEWIGEILPGSGTTNYNENFKDRATFTADTSSNTAYMQLSSLTSEDSAIYYCARSYYYASRWFAFWGQGTLVTVSS
VL: B9 VL with V15I, N20S, K24R, T32N, V33L, Y55F, H79Q, S93R
B11: MASP-3 mAb 1B11 (mouse-human chimeric IgG4) (antibody, V domains shown)
VH: QVQLKQSGAELVRPGASVKLSCKASGYTFTDYYINWVKQRPGQGLEWIARIYPGSGNTYYNEKFKGKATLTAEKSSSTAYMQLSSLTSEDSAVYFCARNYYISSPWFAYWGQGTLVTVSS
VL: B9 VL with N20S, T32N, H79Q, E85D, S93R, F96L, S100A, I106L
B12: MASP-3 mAb 35C1 (mouse-human chimeric IgG4) (antibody, V domains shown)
VH: QIQLVQSGPELKTPGETVKISCKASGYIFTSYGITWVKQAPGKGLKWMGWINTYSGVPTYADDFKGRFAFSLETSASTAYLQINNLKNEDTTTYFCTRGGDALDYWGQGTSVTVSS
VL: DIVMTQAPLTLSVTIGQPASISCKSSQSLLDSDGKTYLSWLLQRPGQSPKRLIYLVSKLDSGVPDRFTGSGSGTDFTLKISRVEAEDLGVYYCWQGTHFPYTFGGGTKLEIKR
B13: MASP-3 mAb 49C11 (mouse-human chimeric IgG4) (antibody, V domains shown)
VH: EVQLQQSGPVLVKPGASGKMSCKASGYKFTDYYMIWVKQSHGKSLEWIGVIKIYNGGTSYNQKFKGKATLTVDKSSSTAYMELNSLTSEDSAVYYCARGPSLYDYDPYWYFDVWGTGTTVTVSS
VL: DVLMTQTPLSLPVSLGDQASFSCRSSQSLIHSNGNTYLHWYLQKPGQSPKLLIYKVSNRFSGVPDRFSGSGSGTDFTLKISRVEAEDLGVYFCSQSTHVPWTFGGGTKLEIKR

Key:
[1] = molecular target: T1, human MASP-3 (construct not stated); assay: not described at this place
[2] = molecular target: T2, human MASP-3 CCP1-CCP2-SP fragment; assay: sandwich ELISA, MASP-3 CCP1-CCP2-SP captured by αM3-259
Method: (§1) The plate was then washed (PBS-T, 0.05%) and the candidate MASP-3 antibodies were added followed by incubation for one hour at room temperature. The plate was washed (PBS-T, 0.05%) and a detection antibody was added (mouse anti-human kappa-HRP, SouthernBiotech #9230-05) for one hour at room temperature. After another wash (PBS-T, 0.05%) the plate was developed (5 minutes) with OPT EIA TMB (BD Biosciences #555214). Absorbance reading at A450 was measured using the Spectramax M5e plate reader.

[3] = molecular target: T3, recombinant full-length mouse MASP-3; assay: sandwich ELISA, full-length mouse MASP-3 captured by αM3-259
Method: as §1

[4] = molecular target: T1, human MASP-3 (construct not stated); assay: ELISA, monovalent Fab
[5] = molecular target: T5, recombinant human MASP-2 (CCP1-CCP2-SP fragment) (human, UniProt O00187 298-686, limits assumed); assay: ELISA: recombinant MASP-2 (CCP1-CCP2-SP) coated directly on the plate, A450
T5 construct: domain: CCP1-CCP2-SP fragment
T5 sequence (O00187 298-686 limits assumed): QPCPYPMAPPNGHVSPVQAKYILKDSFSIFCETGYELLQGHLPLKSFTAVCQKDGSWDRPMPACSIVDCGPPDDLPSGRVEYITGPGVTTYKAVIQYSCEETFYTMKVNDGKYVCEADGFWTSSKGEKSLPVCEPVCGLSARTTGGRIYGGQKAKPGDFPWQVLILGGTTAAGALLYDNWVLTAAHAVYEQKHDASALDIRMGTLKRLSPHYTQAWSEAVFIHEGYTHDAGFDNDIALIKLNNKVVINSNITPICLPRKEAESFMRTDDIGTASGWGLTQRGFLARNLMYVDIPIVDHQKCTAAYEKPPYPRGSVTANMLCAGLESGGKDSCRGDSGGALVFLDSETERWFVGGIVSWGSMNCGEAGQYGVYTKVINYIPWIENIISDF
Method: as §1

[6] = molecular target: T4, recombinant human MASP-1A (S646A, …); assay: ELISA: recombinant MASP-1A (S646A, CCP1-CCP2-SP) coated directly on the plate, A450
Method: as §1

| Binder | binding affinity [1] [pM] | EC50 [2] [nM] | EC50 [3] [nM] | EC50 [4] [nM] | binding result [5] | binding result [6] |
| --- | --- | --- | --- | --- | --- | --- |
| B1 | ≤ 500 | 0.112 | 117 | – | – | – |
| B2 | – | – | – | 0.294 | – | – |
| B3 | – | – | – | 0.181 | – | – |
| B4 | – | – | – | 0.326 | – | – |
| B5 | – | – | – | 0.122 | – | – |
| B6 | – | – | – | 0.732 | – | – |
| B7 | – | – | – | 0.151 | – | – |
| B8 | – | – | – | 0.105 | – | – |
| B9 | ≤ 500 | 0.06 | 0.066 | – | no binding (tested: about 20 nM (log10 about 1.3)) | no binding (tested: about 20 nM (log10 about 1.3)) |
| B10 | ≤ 500 | 0.074 | 0.092 | – | no binding (tested: about 20 nM (log10 about 1.3)) | no binding (tested: about 20 nM (log10 about 1.3)) |
| B11 | ≤ 500 | 0.059 | 1.1 | – | no binding (tested: about 20 nM (log10 about 1.3)) | no binding (tested: about 20 nM (log10 about 1.3)) |
| B12 | ≤ 500 | 0.091 | 0.209 | – | no binding (tested: about 20 nM (log10 about 1.3)) | no binding (tested: about 20 nM (log10 about 1.3)) |
| B13 | ≤ 500 | 0.069 | 0.064 | – | no binding (tested: about 20 nM (log10 about 1.3)) | no binding (tested: about 20 nM (log10 about 1.3)) |
